Experimental data as given in the supplement of paper PMC10567573.
± gives the standard deviation.

Experiment: protein stability index of a GFP-peptide fusion (GPS, HEK-293T) (PSI 1-6); higher = more stable
[1] = treatment: DMSO, c terminus: a fixed tail appended
[2] = treatment: MLN4924 1 uM, 8 h, c terminus: a fixed tail appended
[3] = treatment: DMSO, c terminus: native
[4] = treatment: MLN4924 1 uM, 8 h, c terminus: native
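Note: 24-mer peptide tiles fused after GFP, lentivirally expressed, FACS-sorted into six equal bins by GFP/DsRed ratio, decoded by Illumina sequencing, PSI is the read-weighted mean bin number.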

Sequence | protein stability index [1] | protein stability index [2] | protein stability index [3] | protein stability index [4]
RVEESGSKKEGKRQGPKEPPRKSG [PBXIP1] | 5.33 ± 0.17 | 5.33 ± 0.48 | – | –
RVKLTKRSGHTQTDYINASFMDGY [PTPN9] | 2.75 ± 0.14 | 2.87 ± 0.27 | – | –
RVTTEQYQKAAEEVEAKFKRYESH [CHCHD3] | 4.66 ± 0.14 | 4.7 ± 0.12 | – | –
RYCDSILREMLSKKHAAYAWPFYK [BRD3] | 2.07 ± 0.48 | 2.02 ± 0.26 | – | –
RYVLKAGQTVTIWAANAGVTASPP [LMNB1] | 3.62 ± 0.27 | 3.49 ± 0.24 | – | –
SAIYKWITDNFCYFRHADPTWQNS [FOXJ1] | – | 2.57 ± 0.4 | – | –
SAPLQGAVPPTSSVPPVAGAPSVG [SNAP91] | 4.91 ± 0.19 | 4.99 ± 0.081 | – | –
SARYLEAALRLHRLLRDSEAFCHA [P3H4] | 2.51 ± 0.23 | 2.07 ± 0.2 | – | –
SATLVGFTVGSVLGQILVSVAGWS [SLC19A2] | 3.13 ± 0.21 | 3.23 ± 0.89 | – | –
SAVVGDVLVLTKPLGTQVAVNAHQ [SEPHS2] | 2.95 ± 0.3 | 3.1 ± 0.31 | – | –
SAWKTVACGGTRDQLFMQEKARQL [MYBL2] | 3.21 ± 0.33 | 3.33 ± 0.28 | – | –
SDGTDEPESKEPVEKEEEPDPEPP [SMG5] | 5.67 ± 0.23 | 5.62 ± 0.18 | – | –
SDPQTVAGAFGYFQQDTKGLVDFR [LPCAT4] | 3.68 ± 0.41 | 3.71 ± 0.29 | – | –
SDSGDGVYAGRPLSVIQMVAFLEQ [FBXO34] | 2.92 ± 0.15 | 3.02 ± 0.34 | – | –
SDVVPEKERPLVIGHFNTASGVGF [MFSD9] | 3.49 ± 0.26 | 3.52 ± 0.25 | – | –
SEDNTSFDRKKKSISLMYGGSKRK [SLA] | 4.66 ± 0.26 | 4.91 ± 0.27 | – | –
SEDTLTIHGLPTEGYQALYHAVVE [C22orf31] | 3.19 ± 0.27 | 3.24 ± 0.36 | – | –
SETGSTGALETRSLKDHKVSFLRS [C2CD2L] | 4.48 ± 0.29 | 4.46 ± 0.19 | – | –
SFMLQDRAKGLLGTTVTFDDLMGI [FEM1C] | 2.49 ± 0.24 | 2.66 ± 0.14 | – | –
SFNHNAHLTVHKRIHTGERPYMCK [ZNF8] | 2.76 ± 0.2 | 2.9 ± 0.22 | – | –
SFPEPEAAQPMTKKRKVDGLSTEA [PRAME] | 5.19 ± 0.3 | 5.16 ± 0.14 | – | –
SFPLEWAPQNLTRWTFEKACHPFL [TOR1AIP2] | 2.12 ± 0.093 | 2.31 ± 0.12 | – | –
SFTLADVSLAVTLHRLKFLGFARR [GDAP1] | 2.5 ± 0.64 | 2.33 ± 0.33 | – | –

Sequence | protein stability index [1] | protein stability index [2] | protein stability index [3] | protein stability index [4]
SFVESANSEVYLPNINKISMQAVL [RHOBTB1] | 2.43 ± 0.21 | 2.2 ± 0.34 | – | –
SGDRDENSFSLNSSISSSARRTTR [MAP2] | 5.05 ± 0.28 | 4.97 ± 0.32 | – | –
SGHKLYIFLFQDILVLTRPVTRNE [NET1] | 2.6 ± 0.56 | 2.41 ± 0.48 | – | –
SGLVRRLWRSRVVPDREEGGSGGG [SMAD6] | 3.91 ± 0.6 | 4.33 ± 0.36 | – | –
SGMGGRAPVSRGRDSYGGPPRREP [RBMX] | 4.45 ± 0.28 | 4.61 ± 0.29 | – | –
SGRLMGSPPVPGPSAALTTMQLFS [FBXO28] | 2.71 ± 0.25 | 2.63 ± 0.21 | – | –
SGSSYRDALQRYGTSHGAPPARGP [RBMY1A1] | 4.1 ± 0.22 | 4.14 ± 0.25 | – | –
SIKKKFLKRKGKTDSPWIKPARKR [EHMT1] | 3.66 ± 0.082 | 3.71 ± 0.17 | – | –
SIKPEASQMPPPAGGTSDDPEPSG [SCNN1D] | 5.43 ± 0.15 | 5.57 ± 0.28 | – | –
SIPKLKLTRPVPAGADLPPPKIRL [PWWP2B] | 3.45 ± 0.23 | 3.63 ± 0.35 | – | –
SIVSGGYGGSGDGLIPTGSGRHPS [ARFIP2] | 3.96 ± 0.19 | 4.34 ± 0.42 | – | –
SIYPMEVLKTRMALRKTGQYSGML [SLC25A25] | 2.48 ± 0.36 | 2.6 ± 0.52 | – | –
SKAHLEKVRSYVKRALAEGAQIWC [ALDH8A1] | 3.23 ± 0.73 | 3.19 ± 0.56 | – | –
SKSKQPAGHRRPAGGIRESKESSK [C22orf31] | 5.35 ± 0.055 | 4.91 ± 0.53 | – | –
SKTFLCIGSSVMAASLVTMGIVNL [SLC2A12] | 3.19 ± 0.72 | 3.3 ± 0.54 | – | –
SKTNLIVNYLPQNMTQDEFKSLFG [ELAVL3] | 2.63 ± 0.28 | 2.79 ± 0.22 | – | –
SLAQGPDAATTDELSSLGSDSEAN [TBC1D10A] | 5.56 ± 0.19 | 5.5 ± 0.18 | – | –
SLGYVRSQFLKLKTSVEKANAQIQ [CD207] | 2.63 ± 0.53 | 2.81 ± 0.27 | – | –
SLKDGLSDSDSELSSSEGLEPGSA [PSD2] | 5.47 ± 0.28 | 5.6 ± 0.13 | – | –
SLLNFLPEGVNKLKISPVTLKEAY [TENT5C] | 2.27 ± 0.23 | 2.41 ± 0.12 | – | –
SLLPAQVAACAQTVVSLAAAGQPT [CEBPD] | 3.24 ± 0.9 | 2.9 ± 0.37 | – | –
SLLQSAWMEILILGVVYRSLSFED [ESRRG] | 3.09 ± 0.26 | 3.07 ± 0.22 | – | –
SLRLCDMRAAALCDKHSKLFEEPE [PPP2R2C] | 4.19 ± 0.26 | 4.08 ± 0.26 | – | –

Sequence | protein stability index [1] | protein stability index [2] | protein stability index [3] | protein stability index [4]
SLSAGEKPGFLAPRDLPKHTPLIS [RASAL3] | 3.56 ± 0.23 | 3.65 ± 0.32 | – | –
SLSHTELEAAEVILEHAHRGEQTT [FCHSD1] | 5.22 ± 0.26 | 5.28 ± 0.11 | – | –
SLTSGACRLDYRRPENRSFYLALY [TCF25] | 2.41 ± 0.66 | 2.57 ± 0.88 | – | –
SMLLQRFSVAPHETQTQRGGEFQC [RNF180] | 3.05 ± 0.097 | 3.31 ± 0.26 | – | –
SNFHINVEESVDGQVVSSHKREI [KRT15] | – | – | 2.91 ± 1 | 3.83 ± 1
SNIDKKFSAHYDAVEAELKSSTVG [FAM50A] | 4.64 ± 0.18 | 4.83 ± 0.28 | – | –
SNPLAREIFRRHFRQLCYQETPGP [ZSCAN9] | 2.28 ± 0.039 | 2.52 ± 0.097 | – | –
SNQIPTEVRSKAEEVVSFVKKNVL [FUNDC2] | 3.59 ± 0.32 | 3.73 ± 0.18 | – | –
SNTRDRYGRSWESYSSCGDFHYCD [RBMY1A1] | 2.73 ± 0.27 | 2.91 ± 0.54 | – | –
SNWYITFQSDTDAQQAFILKRRS [LARP4] | – | – | 2.93 ± 0.3 | 2.21 ± 0.41
SPDVLQMLKIHRSDPQLIVQLRFC [TRADD] | 2.73 ± 0.58 | 2.56 ± 0.6 | – | –
SPQPLASSPGPWGLEALAGGDLMP [FCHO1] | 4.05 ± 0.093 | 4 ± 0.27 | – | –
SRLMVVVKMDSSIQPGPFRAVLKY [RHOBTB2] | 2.9 ± 0.56 | 2.79 ± 0.53 | – | –
SRLQEDPEGTENPLGVDESLFSYG [SLA] | 4.91 ± 0.058 | 4.66 ± 0.69 | – | –
SRPELLQPLNFVRFYLPLLIHQHE [GLT8D2] | 3.09 ± 0.33 | 3.14 ± 0.59 | – | –
SRRPLDEAVAGAEGREAPALVAAG [DENND6A] | 4.86 ± 0.35 | 5.19 ± 0.25 | – | –
SRRYNRKEPAEFNGDGAFLHDNHE [ZNF649] | 4.73 ± 0.43 | 4.45 ± 0.13 | – | –
SRVMFLLVDKETDKRHVEQKIQFK [PDZK1] | 2.62 ± 0.32 | 2.88 ± 0.26 | – | –
SSASSEQGLLGRSPPTRPVPGHRS [SPRY1] | 4.82 ± 0.27 | 4.8 ± 0.12 | – | –
SSDPFYTPEPDTCHELLGHVPLLA [TPH1] | 3.17 ± 0.35 | 3.31 ± 0.15 | – | –
SSECHTSGFVGSGGWFCEGSFNGS [KRT36] | 3.23 ± 0.17 | 3.06 ± 0.37 | – | –
SSNLLDLKNPFFRYTGTTPSPPPG [CARM1] | 3.29 ± 0.29 | 3.42 ± 0.15 | – | –
SSREDSLEAGLPLQVRGYPEEKKE [CHGA] | 5.49 ± 0.21 | 5.5 ± 0.3 | – | –

Sequence | protein stability index [1] | protein stability index [2] | protein stability index [3] | protein stability index [4]
SSRFSSSRLLGSASPSSSVRLGSF [PRPH] | 2.82 ± 0.24 | 2.83 ± 0.18 | – | –
SSTQLNELLLFAVGFIMAGTPMAL [OR3A1] | 3.05 ± 0.3 | 3.04 ± 0.61 | – | –
STCHAYSNTRDRYGRSWESYSSCG [RBMY1A1] | 2.29 ± 0.16 | 2.47 ± 0.37 | – | –
STDDFFFREDGAYEFNPDFLEEAH [N4BP2L1] | 4.99 ± 0.34 | 4.89 ± 0.17 | – | –
STELQASQILQNKKHKNSQLDKNS [FAM98B] | 4.91 ± 0.38 | 5.06 ± 0.45 | – | –
STLKTLLFFTALMITVPIGLYFTT [VMA21] | 2.45 ± 0.19 | 2.31 ± 0.19 | – | –
STPKLTSRSAAQDLDRMGVMTLPS [PPFIA4] | 4.03 ± 0.28 | 3.97 ± 0.056 | – | –
STPTTPGSTAITPGTPPSYSSRTP [MAP2] | 4.88 ± 0.1 | 5.06 ± 0.15 | – | –
SVETLDHDSVVEMIRKGGDQTSLL [PDZK1] | 4.44 ± 0.42 | 4.55 ± 0.28 | – | –
SVPLDPMERPMSQADLELDYNPPR [CBY2] | 4.75 ± 0.6 | 4.98 ± 0.23 | – | –
SVTKEGLELPEDEEEKKKMEESKA [HSP90AB1] | 5.68 ± 0.32 | 5.54 ± 0.39 | – | –
SYSRGYSYHDGYGEALGRDHSEHL [RBMY1A1] | 3.5 ± 0.28 | 3.38 ± 0.26 | – | –
TAHLYSLLQTQHALGDAFADLSQK [ARFIP2] | 2.18 ± 0.25 | 2.22 ± 0.23 | – | –
TASGDCYTFGSNQHGQLGTNTRRG [NEK8] | 4.56 ± 0.14 | 4.67 ± 0.15 | – | –
TDIKDESCCMTEEIFGPVTCVVPF [ALDH8A1] | 3.53 ± 0.23 | 3.48 ± 0.3 | – | –
TFPDLESEFQAALSRKVAELVHFL [MAGEA3] | 2.34 ± 0.37 | 2.45 ± 0.33 | – | –
TFPHSISAKNTSHPGSGTKVQFNL [SASS6] | 2.89 ± 0.33 | 3 ± 0.46 | – | –
TGKAPSPRAAHACATVGNRGFVFG [KLHDC2] | 2.38 ± 0.11 | 2.21 ± 0.19 | – | –
TGVYPRCLHASQWPVCAACPVRKF [BRF1] | 2.49 ± 0.17 | 2.45 ± 0.24 | – | –
THEVMGPKKKHLDYLIQATNETNV [SNAP91] | 3.85 ± 0.32 | 3.69 ± 0.64 | – | –
